The text below walks through data of patent US20180362652A1 (Biogen, published 2018).

Where a chain is given by its changes, count along the chain named. In names and notes the source's numbering stands.

To fix the notation:
T1: monomeric huBDCA2 ectodomain (human, UniProt Q8WTT0 45-213)
T1 construct: Prepared by proteolytic cleavage of the purified muIgG2a Fc-huBDCA2 fusion protein (pEAG2423); also called human BDCA2 ectodomain; human BDCA2 ECD
T1 sequence: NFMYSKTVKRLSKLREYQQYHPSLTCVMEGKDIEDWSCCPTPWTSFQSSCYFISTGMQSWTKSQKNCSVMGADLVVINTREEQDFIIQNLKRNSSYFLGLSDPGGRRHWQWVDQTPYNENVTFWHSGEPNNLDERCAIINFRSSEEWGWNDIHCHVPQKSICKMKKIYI

T2: human BDCA2 (full-length, cell surface) (human, UniProt Q8WTT0 1-213)
T2 construct: also called huBDCA2; surface human BDCA2
T2 sequence: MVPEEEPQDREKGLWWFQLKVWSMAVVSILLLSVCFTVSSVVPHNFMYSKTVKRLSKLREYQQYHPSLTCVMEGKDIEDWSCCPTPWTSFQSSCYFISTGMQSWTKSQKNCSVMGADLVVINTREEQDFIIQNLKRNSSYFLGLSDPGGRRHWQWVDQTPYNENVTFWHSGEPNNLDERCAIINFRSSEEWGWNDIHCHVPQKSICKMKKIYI

T3: cynomolgus monkey BDCA2 (full-length, cell surface, E73 SNP form) (cynomolgus monkey, UniProt Q8WTT0 1-213 (human entry))
T3 construct: also called cyno BDCA2; surface cynomolgus monkey BDCA2
T3 chain: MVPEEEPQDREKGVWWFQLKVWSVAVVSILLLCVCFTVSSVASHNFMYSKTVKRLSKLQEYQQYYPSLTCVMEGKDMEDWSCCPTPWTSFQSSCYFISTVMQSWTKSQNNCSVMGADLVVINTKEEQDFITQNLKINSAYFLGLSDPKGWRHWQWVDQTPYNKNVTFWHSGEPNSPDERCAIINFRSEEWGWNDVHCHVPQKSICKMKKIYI

B1: ch24F4 C95S variant (antibody, human IgG1, kappa, V domains shown)
VH: DVKLVESGGGLVKPGGSLKLSCAASGFTFSTYTMSWVRQTPEKRLEWVATISPGDSFGYYYPDSVQGRFTISRDNAKNTLFLQMSSLKSEDTAMYYCTRDIYYNYGAWFAYWGQGTLVTVSA
VL: DIVLTQSPASLAVSLGQRATISCKASQSVDYDGDSYMNWYQQKPGQPPKLLIYAASTLESGVPARFSGSGSGTDFTLNIHPVEEEDAATYYCQQSNEDPRTFGGGTKLEIKR
notes: pYL672 with pEAG2678; conditioned medium of 293E cells
B2: hu24F4 H6/L0 (antibody, V domains shown)
VH: DVQLVESGGGLVKPGGSLRLSCAASGFTFSTYTMSWVRQAPGKGLEWVATISGGNNYGYSYPDSVKGRFTISRDNAKNSLYLQMNSLRAEDTAVYYCTRDIYYNYGAWFAYWGQGTLVTVSS
VL: AIQLTQSPSSLSASVGDRVTITCKASQSVDYDGDSYMNWYQQKPGKAPKLLIYAASTLESGVPSRFSGSGSGTDFTLTISSLQPEDFATYYCQQSNEDPRTFGQGTKVEIK
notes: Humanized variant, human IgG1/kappa, conditioned medium of 293E cells; also called H6 series of hu24F4
B3: hu24F4 H5/L1 C95A (antibody, V domains shown)
VH: B2 VH with E6Q, G53P, N55D, N56S, Y57F, S60Y, K66Q, S86R, Q114R
VL: DIQLTQSPSSLSASVGDRVTITCKASQSVDYDGDSYMNWYQQKPGKAPKLLIYAASTLESGVPSRFSGSGSGTDFTLTISSLQPEDFATYYCQQANEDPRTFGQGTKVEIKR
notes: also called H5/L1 C95A variant
B4: hu24F4 H4/L1 S95C (antibody, human IgG1, V domains shown)
VH: B2 VH with G53P, N55D, N56S, Y57F, S60Y, K66Q
VL: B2 VL with A1D, S95C
notes: Human IgG1/kappa; conditioned medium of 293E cells; also called H4-L1-S95C (YL749/YL746)
B5: hu24F4 H4/L1 S95T (antibody, human IgG1, V domains shown)
VH: B2 VH with G53P, N55D, N56S, Y57F, S60Y, K66Q
VL: B2 VL with A1D, S95T
notes: Human IgG1/kappa; conditioned medium of 293E cells; also called H4-L1-C95T (YL750/YL746); hu24F4 H4/L1 C95T
B6: hu24F4 H4/L1 S95V (antibody, human IgG1, V domains shown)
VH: B2 VH with G53P, N55D, N56S, Y57F, S60Y, K66Q
VL: B2 VL with A1D, S95V
notes: Human IgG1/kappa; conditioned medium of 293E cells; also called H4-L1-C95V (YL752/YL746)
B7: hu24F4 H5/L2 (antibody, V domains shown)
VH: B2 VH with E6Q, G53P, N55D, N56S, Y57F, S60Y, K66Q, S86R, Q114R
VL: B2 VL with A1D, A13V, V19A, T22S, L82V
notes: Humanized variant, human IgG1/kappa, conditioned medium of 293E cells; also called H5 series of hu24F4
B8: hu24F4 H4/L2 (antibody, V domains shown)
VH: B2 VH with G53P, N55D, N56S, Y57F, S60Y, K66Q
VL: B2 VL with A1D, A13V, V19A, T22S, L82V
notes: Humanized variant, human IgG1/kappa, conditioned medium of 293E cells; also called H4 series of hu24F4
B9: hu24F4 H0/L1 (antibody, V domains shown)
VH: EVQLVESGGGLVKPGGSLRLSCAASGFTFSTYTMSWVRQAPGKGLEWVSAISGSGGSTYYADSVKGRFTISRDNAKNSLYLQMNSLRAEDTAVYYCARDIYYNYGAWFAYWGQGTLVTVSS
VL: B2 VL with A1D
notes: Humanized variant, human IgG1/kappa, conditioned medium of 293E cells; also called H0 series of hu24F4
B10: hu24F4 H2/L1 (antibody, V domains shown)
VH: EVQLVESGGGLVKPGGSLRLSCAASGFTFSTYTMSWVRQAPGKGLEWVSTISPGDSSTIYYADSVKGRFTISRDNAKNSLYLQMNSLRAEDTAVYYCARDIYYNYGAWFAYWGQGTLVTVSS
VL: B2 VL with A1D
notes: Humanized variant, human IgG1/kappa, conditioned medium of 293E cells; also called H2 series of hu24F4
B11: hu24F4 H1/L1 (antibody, V domains shown)
VH: B9 VH with A50T, G53P, S54G, G55D, G56S, S57F, T58G, A61P
VL: B2 VL with A1D
notes: Humanized variant, human IgG1/kappa, conditioned medium of 293E cells; also called H1 series of hu24F4
B12: hu24F4 H1/L2 (antibody, V domains shown)
VH: B9 VH with A50T, G53P, S54G, G55D, G56S, S57F, T58G, A61P
VL: B2 VL with A1D, A13V, V19A, T22S, L82V
notes: as for B11
B13: hu24F4 H3/L2 (antibody, V domains shown)
VH: B10 VH with S57F, T58G, I59Y, A62P, K66Q
VL: B2 VL with A1D, A13V, V19A, T22S, L82V
notes: Humanized variant, human IgG1/kappa, conditioned medium of 293E cells; also called H3 series of hu24F4
B14: hu24F4 H0/L2 (antibody, V domains shown)
VH: B9 VH
VL: B2 VL with A1D, A13V, V19A, T22S, L82V
notes: as for B9
B15: hu24F4 H2/L2 (antibody, V domains shown)
VH: B10 VH
VL: B2 VL with A1D, A13V, V19A, T22S, L82V
notes: as for B10
B16: hu24F4 H6/L2 (antibody, V domains shown)
VH: B2 VH
VL: B2 VL with A1D, A13V, V19A, T22S, L82V
notes: as for B2
B17: hu24F4 H2/L0 (antibody, V domains shown)
VH: B10 VH
VL: B2 VL
notes: as for B10
B18: hu24F4 H0/L0 (antibody, V domains shown)
VH: B9 VH
VL: B2 VL
notes: as for B9
B19: hu24F4 H1/L0 (antibody, V domains shown)
VH: B9 VH with A50T, G53P, S54G, G55D, G56S, S57F, T58G, A61P
VL: B2 VL
notes: as for B11

One assay has as its target T1, monomeric huBDCA2 ectodomain. Description: Octet, mAb on anti-human Fc tips, monomeric huBDCA2 in solution. On the procedure: Site-directed mutagenesis was performed using Agilent's QuikChange II mutagenesis kit following the manufacturer's recommended protocol. […] Mutated plasmids were identified by screening for the introduced restriction site changes. The full-length light chain cDNA sequences in the resultant plasmids were confirmed by DNA sequencing. […] Conditioned medium was harvested at 2 days post-transfection. […] Antibodies from conditioned medium from transiently transfected cells were bound to anti-human Fc tips, then monomeric huBDCA2 was flowed over the Octet tips, to examine binding and dissociation.
Regarding B1, the binding result is given as “binds”.

A further assay addresses T2, human BDCA2 (full-length, cell surface). Nature of the assay: direct binding FACS on surface BDCA2, conditioned medium.
For B1, the binding result is “binds”.

For the next assay, the target named is T1, monomeric huBDCA2 ectodomain. Description: Octet, mAb from conditioned medium on anti-human Fc tips, monomeric huBDCA2 in solution. The method, then: The monomeric huBDCA2 ectodomain was prepared by proteolytic cleavage from the purified muIgG2a Fc-huBDCA2 fusion protein (relevant plasmid: pEAG2423). Antibodies from conditioned medium from transiently transfected cells were bound to anti-human Fc tips, and then monomeric huBDCA2 was flowed over the Octet tips, to examine binding and dissociation.
In general terms: Biolayer interferometry detects binding as a change in optical thickness at a sensor tip.
What is called Kd is the free concentration of one partner at which half of the binding sites on the other are occupied at equilibrium, for simple one-to-one binding. By koff is commonly meant the first-order rate constant of dissociation. By kon is commonly meant a measure of how fast the partners come together. B2 came in with a Kd of 5 nM, a koff of 0.00137 s⁻¹ and an on-rate (kon) of 273000 M⁻¹ s⁻¹.

The next assay shares this target. The description is as above. This is another data set of the same source. On the procedure:
Backmutation to the unpaired cysteine, i.e., S95C, was constructed by site-directed mutagenesis producing plasmid pYL749. Variants S95T, S95A, and S95V were constructed by site-directed mutagenesis producing plasmids pYL750, pYL751, and pYL752, respectively. The full-length light chain cDNA sequences in the resultant plasmids were confirmed by DNA sequencing. […] Conditioned medium was harvested at 2 days post-transfection. […] Conditioned medium containing the C95 variant mAbs was assayed by Octet for binding to human BDCA2 ectodomain. Antibodies from conditioned medium from transiently transfected cells were bound to anti-human Fc tips, then monomeric huBDCA2 was flowed over the Octet tips, to examine binding and dissociation.
As to B3, the binding result is reported as “binds”. On to B4, for which the Kd is 0.289 nM, the koff was determined as 0.000279 s⁻¹ and the kon is 967000 M⁻¹ s⁻¹. Molecule B5 showed a Kd of 0.392 nM, a koff of 0.00037 s⁻¹ and a kon of 944000 M⁻¹ s⁻¹. For B6, in that order: 0.323 nM, 0.000301 s⁻¹ and 933000 M⁻¹ s⁻¹. For the molecule B7, the binding result is “binds”.

In the case of B8, the binding result was “binds”.

The next assay has as its target T3, cynomolgus monkey BDCA2 (full-length, …). Nature of the assay: direct binding FACS, conditioned medium on CHO cells co-expressing cynomolgus BDCA2 and FcεRIγ. On the procedure:
(§1) Conditioned medium was assayed by direct binding FACS on stably transfected DG44 CHO cells co-expressing full-length BDCA2 and FcεRIγ cDNAs (human or cynomolgus monkey), (relevant expression vectors are human BDCA2/FcεRIγ: pEAG2456, cyno BDCA2/FcεRIγ: pEAG2668).
On to B9, for which the binding result is “no binding (tested: about 6000 ng/ml)”. Same read-out and setting: for B10 the value was “no binding (tested: about 7000 ng/ml)”; for B11, “no binding (tested: about 5000 ng/ml)”.

The target in the next assay is T2, human BDCA2 (full-length, cell surface). Description: direct binding FACS, conditioned medium on CHO cells co-expressing BDCA2 and FcεRIγ. On the procedure:
as §1
Consider B12, for which the binding result was “no binding”.

On to B13, for which the binding result is on record as “binds”. The same measure, in the same setting: then B14, with “no binding”.

As for B15, the binding result is “no binding”. Consider B16, for which the binding result is recorded as “binds”.

Consider B7, for which the binding result is listed as “binds”.

With B8, the binding result is recorded as “binds”.

For the next assay, the target named is T3, cynomolgus monkey BDCA2 (full-length, …). The description is as above. The method, then:
as §1
As for B17, the binding result is “no binding”. The same measure, in the same setting: then B12, with “no binding”. Still for that read-out and setting: for B13 the value was “binds”. On the same count and under the same terms, for B14 the value was “no binding”; for B18, “no binding”; for B19, “no binding”. Turning to B15, the binding result was “no binding”. For the molecule B16, the binding result is given as “binds”.

As to B7, the binding result was “binds”. Consider B8, for which the binding result was “binds”.
